Substitutions are numbered along the chain they refer to.
B1: single VH domain antibody 2.12 (VHH)
VHH: EVQLVESGGGVVQPGRSLRLSCAASGFSFSGYGMHWVRQAPGKGLEWVAYISYDKSNKYYADKVKGRFTISRDNSKNTLYLQMNSLRAEDTAVYYCAKDPAWGLRLGESSSYDFDIWGQGTMVTVSS
notes: Human single VH domain antibody (Humabody); C-terminal His tag, residues not tied
B2: HiPEG A-His6 val-cit-PAB-MMAE (VHH)
VHH: B1 VHH with K55G, K63S
modifications: HiPEG val-cit-PAB-MMAE attached via the C-terminal His6-tag, DAR 1
B3: single VH domain antibody 2.14 (VHH)
VHH: B1 VHH with M34V, K55A, K63N
notes: as for B1
B4: single VH domain antibody 2.13 (VHH)
VHH: B1 VHH with M34L, K55A, K63N
notes: as for B1
B5: single VH domain antibody 2.18 (VHH)
VHH: B1 VHH with M34Q, K55A, K63N
notes: as for B1
B6: HiPEG A-2-B-His6 val-cit-PAB-MMAE (bispecific antibody)
chain: EVQLVESGGGVVQPGRSLRLSCAASGFSFSGYGMHWVRQAPGKGLEWVAYISYDGSNKYYADSVKGRFTISRDNSKNTLYLQMNSLRAEDTAVYYCAKDPAWGLRLGESSSYDFDIWGQGTMVTVSSGGGGSGGGGSGGGGSGGGGSGGGGSGGGGSEVQLLESGGGLVQPGGSLRLSCAASGFSFSSYAMSWVRQAPGKGLEWVSSIGENDGTTDYADSVKGRFTISRDNSKSMLYLQMNSLRVEDTAVYYCVKDGVHWGQGTLVTVSSAAAHHHHHH
modifications: HiPEG val-cit-PAB-MMAE attached via the C-terminal His6-tag, DAR 1
B7: HiPEG B-1-A-His6 val-cit-PAB-MMAE (bispecific antibody)
chain: EVQLLESGGGLVQPGGSLRLSCAASGFSFSSYAMSWVRQAPGKGLEWVSSIGENDGTTDYADSVKGRFTISRDNSKSMLYLQMNSLRVEDTAVYYCVKDGVHWGQGTLVTVSSGGGGSGGGGSEVQLVESGGGVVQPGRSLRLSCAASGFSFSGYGMHWVRQAPGKGLEWVAYISYDGSNKYYADSVKGRFTISRDNSKNTLYLQMNSLRAEDTAVYYCAKDPAWGLRLGESSSYDFDIWGQGTMVTVSS
modifications: HiPEG val-cit-PAB-MMAE attached via the C-terminal His6-tag, DAR 1
B8: HiPEG A-2-A-His6 val-cit-PAB-MMAE (VHH)
chain: EVQLVESGGGVVQPGRSLRLSCAASGFSFSGYGMHWVRQAPGKGLEWVAYISYDGSNKYYADSVKGRFTISRDNSKNTLYLQMNSLRAEDTAVYYCAKDPAWGLRLGESSSYDFDIWGQGTMVTVSSGGGGSGGGGSGGGGSGGGGSGGGGSGGGGSEVQLVESGGGVVQPGRSLRLSCAASGFSFSGYGMHWVRQAPGKGLEWVAYISYDGSNKYYADSVKGRFTISRDNSKNTLYLQMNSLRAEDTAVYYCAKDPAWGLRLGESSSYDFDIWGQGTMVTVSSAAAHHHHHH
modifications: HiPEG val-cit-PAB-MMAE attached via the C-terminal His6-tag, DAR 1
B9: HiPEG B-2-B-His6 val-cit-PAB-MMAE (VHH)
chain: EVQLLESGGGLVQPGGSLRLSCAASGFSFSSYAMSWVRQAPGKGLEWVSSIGENDGTTDYADSVKGRFTISRDNSKSMLYLQMNSLRVEDTAVYYCVKDGVHWGQGTLVTVSSGGGGSGGGGSGGGGSGGGGSGGGGSGGGGSEVQLLESGGGLVQPGGSLRLSCAASGFSFSSYAMSWVRQAPGKGLEWVSSIGENDGTTDYADSVKGRFTISRDNSKSMLYLQMNSLRVEDTAVYYCVKDGVHWGQGTLVTVSS
modifications: HiPEG val-cit-PAB-MMAE attached via the C-terminal His6-tag, DAR 0.7
B10: single VH domain antibody 1.10 (VHH)
VHH: EVQLLESGGGLVQPGGSLRLSCAASGFSFSSYALSWVRQAPGKGLEWVSSIGENNATTDYADFVKGRFTISRDNSKNTLYLQMNSLRVEDTAVYYCVKDGVHWGQGTLVTVSS
notes: Human single VH domain antibody (Humabody)
B11: HiPEG B-His6 val-cit-PAB-MMAE (VHH)
VHH: B10 VHH with L34M, N55D, A56G, F63S, N77S, T78M
modifications: HiPEG val-cit-PAB-MMAE attached via the C-terminal His6-tag, DAR 0.9
B12: single VH domain antibody 1.14 (VHH)
VHH: B10 VHH with F63V
notes: as for B10
B13: single VH domain antibody 1.13 (VHH)
VHH: B10 VHH with A56H, D62A, F63D
notes: as for B10
B14: single VH domain antibody 14.1 (VHH)
VHH: EVQLVESGGEVKKPGASVKVSCKASGYTFTSYDINWVRQATGQGLEWMGWMNPNSGNTGYAQKFQGRVTMTRNTSISTAYMELSSLRSEDTAVYYCARGNGPGITGTTDYWGQGTLVTVSS
B15: single VH domain antibody 6.1 (VHH)
VHH: QVQLQESGPGLVKPSQTLSLTCTVSGGSISNSGYYWSWVRQHPGKDLEWIGFIYYNGSIHYNPSLKSRVIISVDTSKNQFSLKMNSVTAADTAVYYCARDGDDYGDYLRGQGTLVTVSS
notes: Human single VH domain antibody (Humabody); purified via the C-terminal His-tag, residues not tied

Columns and labels:
[1] = molecular target: T1, human prostate specific membrane antigen (PSMA), full-length, on cells (human, UniProt Q04609 1-750); assay: cell-based or functional assay
T1 sequence (Q04609 whole entry): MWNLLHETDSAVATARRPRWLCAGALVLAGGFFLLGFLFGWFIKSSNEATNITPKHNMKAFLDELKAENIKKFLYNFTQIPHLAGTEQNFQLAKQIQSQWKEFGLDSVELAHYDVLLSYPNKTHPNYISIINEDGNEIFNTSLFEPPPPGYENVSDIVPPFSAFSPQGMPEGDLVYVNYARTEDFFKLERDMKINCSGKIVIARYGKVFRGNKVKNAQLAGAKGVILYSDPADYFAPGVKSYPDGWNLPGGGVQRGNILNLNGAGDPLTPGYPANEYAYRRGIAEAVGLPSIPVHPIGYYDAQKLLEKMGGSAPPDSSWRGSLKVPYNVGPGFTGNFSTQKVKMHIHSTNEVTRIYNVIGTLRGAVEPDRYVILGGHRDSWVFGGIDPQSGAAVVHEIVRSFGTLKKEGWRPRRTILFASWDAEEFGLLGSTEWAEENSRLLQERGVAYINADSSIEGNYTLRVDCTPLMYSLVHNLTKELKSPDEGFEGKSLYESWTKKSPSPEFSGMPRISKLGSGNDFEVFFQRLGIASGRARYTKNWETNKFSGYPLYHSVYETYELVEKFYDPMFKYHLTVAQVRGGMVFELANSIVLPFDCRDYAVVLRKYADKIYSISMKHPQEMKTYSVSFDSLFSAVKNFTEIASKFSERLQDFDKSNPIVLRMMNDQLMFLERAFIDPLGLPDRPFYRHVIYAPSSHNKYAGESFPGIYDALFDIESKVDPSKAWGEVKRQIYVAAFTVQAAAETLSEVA

[2] = molecular target: T2, recombinant human PSMA (R&D, cat. no. 4234-ZN) (human, UniProt Q04609 44-750); assay: Octet RED384 BLI, PSMA on sensor, VH series from 0.375 ug/ml
T2 construct: Bought protein; also called rhPSMA; Recombinant PMSA
T2 sequence (Q04609 44-750 limits assumed): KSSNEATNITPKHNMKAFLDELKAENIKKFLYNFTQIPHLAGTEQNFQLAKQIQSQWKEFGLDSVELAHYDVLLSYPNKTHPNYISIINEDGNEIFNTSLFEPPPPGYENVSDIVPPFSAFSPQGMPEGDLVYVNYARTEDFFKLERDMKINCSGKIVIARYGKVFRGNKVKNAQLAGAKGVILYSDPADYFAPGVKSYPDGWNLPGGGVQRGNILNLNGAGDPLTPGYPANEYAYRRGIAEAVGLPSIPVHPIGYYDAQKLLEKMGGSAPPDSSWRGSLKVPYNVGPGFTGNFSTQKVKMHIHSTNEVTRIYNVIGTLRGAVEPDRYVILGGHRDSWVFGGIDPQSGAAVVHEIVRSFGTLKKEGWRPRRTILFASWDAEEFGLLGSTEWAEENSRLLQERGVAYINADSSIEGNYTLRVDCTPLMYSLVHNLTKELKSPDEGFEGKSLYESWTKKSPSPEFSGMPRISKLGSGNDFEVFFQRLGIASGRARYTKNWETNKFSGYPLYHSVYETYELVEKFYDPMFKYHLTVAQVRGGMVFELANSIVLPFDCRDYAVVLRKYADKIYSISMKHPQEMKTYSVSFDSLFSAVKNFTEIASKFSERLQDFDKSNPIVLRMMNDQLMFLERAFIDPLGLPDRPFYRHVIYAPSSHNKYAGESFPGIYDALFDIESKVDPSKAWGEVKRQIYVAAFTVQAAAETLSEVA

[3] = molecular target: T3, cynomolgus PSMA, full-length, on CHO cells (cynomolgus, UniProt A0A2K5VNZ0 1-750); assay: cell-based or functional assay
[4] = molecular target: T1, human prostate specific membrane …; assay: cell-based or functional assay; remark: listed apart in the source
[5] = molecular target: T1, human prostate specific membrane …; assay: cell-based or functional assay; remark: listed apart in the source
[6] = molecular target: T1, human prostate specific membrane …; assay: cell-based or functional assay; remark: listed apart in the source
[7] = molecular target: T1, human prostate specific membrane …; assay: FMAT direct cell binding, CHO human PSMA cells
[8] = molecular target: T3, cynomolgus PSMA, full-length, on CHO …; assay: FMAT direct cell binding, CHO cyno PSMA cells
[9] = molecular target: T1, human prostate specific membrane …; assay: FMAT direct cell binding, LNCap cells
[10] = molecular target: T1, human prostate specific membrane …; assay: FMAT direct cell binding, DU145 PSMA cells
[11] = molecular target: T2, recombinant human PSMA (R&D, cat. no. …); assay: Octet RED384 BLI, PSMA on sensor, VH series from 0.375 ug/ml; remark: listed apart in the source
[12] = molecular target: T2, recombinant human PSMA (R&D, cat. no. …); assay: Octet RED384 BLI, PSMA on sensor, VH purified from periplasmic extracts

Binder	IC50 Toxin (nM), DU145 PSMA cells, 48 h [5]	Mean IC50, cytotoxicity on DU145 PSMA cells, 48 h [5]	Mean Max % Cell kill, DU145 PSMA cells, 48 h [5]	IC50 (nM), cytotoxicity on DU145 PSMA cells, 72 h [6]	IC50 (toxin) nM, DU145 PSMA cells, 72 h [6]	EC50 [7]	EC50 [8]	EC50 [9]	EC50 [10]	further results
B1										pHrodo Green internalization assay, human PSMA Average EC50 (M) [1]: 5.3e-10 M; Kd [2]: 1.56 nM; koff [2]: 0.00157 s⁻¹; His-ZAP cell killing, cyno PSMA EC50 [3]: 0.091 nM; His-ZAP cell killing, human PSMA Average EC50 [4]: 0.016 nM
B2	1.16 nM	1.2 nM	74%	0.55 nM	0.55 nM					
B3						0.11 nM	0.427 nM	0.0332 nM	0.202 nM	
B4										pHrodo Green internalization assay, human PSMA Average EC50 (M) [1]: 5.8e-10 M; Kd [2]: 0.99 nM; koff [2]: 0.000743 s⁻¹; His-ZAP cell killing, cyno PSMA EC50 [3]: 0.08 nM; His-ZAP cell killing, human PSMA Average EC50 [4]: 0.027 nM
B5						0.104 nM	0.337 nM	0.0354 nM	0.25 nM	
B6	0.37 nM	0.37 nM	78%	0.29 nM	0.29 nM					
B7	0.13 nM	0.13 nM	79%	0.1 nM	0.1 nM					
B8	0.32 nM	0.32 nM	57%	0.19 nM	0.19 nM					
B9	12.6 nM	18 nM		21 nM	14.7 nM					
B10						0.0718 nM	0.152 nM	0.133 nM	0.067 nM	Kd [11]: 0.67 nM; koff [11]: 0.000418 s⁻¹; pHrodo Green internalization assay, human PSMA Average EC50 (M) [1]: 6.4e-10 M; His-ZAP cell killing, cyno PSMA EC50 [3]: 1.3 nM; His-ZAP cell killing, human PSMA Average EC50 [4]: 0.021 nM
B11	2.43 nM	2.7 nM	73%	4.1 nM	3.69 nM					
B12						0.0588 nM	0.145 nM	0.0833 nM	0.052 nM	Kd [11]: 0.46 nM; koff [11]: 0.000335 s⁻¹; pHrodo Green internalization assay, human PSMA Average EC50 (M) [1]: 4.4e-10 M; His-ZAP cell killing, cyno PSMA EC50 [3]: 0.79 nM; His-ZAP cell killing, human PSMA Average EC50 [4]: 0.017 nM
B13						0.0513 nM	0.115 nM	0.0386 nM	0.0456 nM	
B14										Kd [12]: 17 nM; koff [12]: 0.0011 s⁻¹
B15										Kd [12]: 16 nM; koff [12]: 0.00365 s⁻¹

Reference: patent publication US20200131274A1 (CRESCENDO BIOLOGICS, published 2020)
